The source of these data is article doi:10.1101/547208, “A single dose of antibody-1 drug conjugate cures a stage model of African trypanosomiasis” (bioRxiv, 2019).

B1: Tb017 scFv (scFv, V domains shown)
VH: QVQLVQSGAEVKKPGSSVKVSCKASGGTFSSYAISWVRQAPGQGLEWMGGIIPIFGTANYAQKFQGRVTITADESTSTAYMELSSLRSEDTAVYYCARGWWYDLVFDYWGQGTLVTVSS
VL: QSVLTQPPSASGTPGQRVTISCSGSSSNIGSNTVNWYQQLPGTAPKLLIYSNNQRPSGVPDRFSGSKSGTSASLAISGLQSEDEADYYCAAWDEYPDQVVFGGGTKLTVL
notes: The name Tb017 is printed for the IgG1 and its conjugate; source: phage produced from E. coli, phage-containing supernatant
B2: Tb085 scFv (scFv, V domains shown)
VH: B1 VH with G99E, W100G, Y102D, D103Y, L104G, V105W, Y108F
VL: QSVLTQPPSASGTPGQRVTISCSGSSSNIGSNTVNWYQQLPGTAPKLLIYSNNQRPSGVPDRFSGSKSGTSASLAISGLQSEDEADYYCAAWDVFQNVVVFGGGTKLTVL
notes: The name Tb085 is printed for the IgG1 and its conjugates; source: phage produced from E. coli, phage-containing supernatant
B3: Tb073 scFv (scFv, V domains shown)
VH: B1 VH with W101Y, Y102D, D103M, L104G, V105D, Y108M
VL: QSVLTQPPSASGTPGQRVTISCSGSSSNIGSNTVNWYQQLPGTAPKLLIYSNNQRPSGVPDRFSGSKSGTSASLAISGLQSEDEADYYCAAWDWHHGHVVVFGGGTKLTVL
notes: The name Tb073 is printed for the IgG1 and its conjugate; source: phage produced from E. coli, phage-containing supernatant
B4: Tb074 scFv (scFv, V domains shown)
VH: B1 VH with Y102H, D103E, L104P, V105G
VL: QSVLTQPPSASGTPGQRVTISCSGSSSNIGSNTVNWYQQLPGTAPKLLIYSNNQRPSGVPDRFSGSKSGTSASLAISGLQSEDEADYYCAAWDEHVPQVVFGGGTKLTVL
notes: The name Tb074 is printed for the IgG1 and its conjugates; source: phage produced from E. coli, phage-containing supernatant
B5: Tb078 scFv (scFv, V domains shown)
VH: B1 VH with W101I, D103E, L104F, V105I, F106I, Y108A
VL: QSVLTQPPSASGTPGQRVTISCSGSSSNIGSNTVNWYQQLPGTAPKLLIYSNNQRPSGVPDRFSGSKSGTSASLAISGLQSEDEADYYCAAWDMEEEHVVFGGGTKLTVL
notes: The name Tb078 is printed for the IgG1 and its conjugate; source: phage produced from E. coli, phage-containing supernatant
B6: Tb086 scFv (scFv, V domains shown)
VH: B1 VH with W101Y, D103H, L104G, V105G, F106I
VL: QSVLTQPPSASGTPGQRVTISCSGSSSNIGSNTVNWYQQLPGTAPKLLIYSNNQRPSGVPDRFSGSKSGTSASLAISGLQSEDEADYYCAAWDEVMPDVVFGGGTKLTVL
notes: The name Tb086 is printed for the IgG1; source: phage produced from E. coli, phage-containing supernatant

Positions count from the first letter of the chain named.

This test addresses T1, Recombinant HpHbR N-terminal domain (Trypanosoma brucei brucei (strain not …, biotin (biotinylated form on streptavidin-coated plates; a non-biotinylated form was coated on Maxisorp plates)).
T1 construct: also called HpHbR NTD; TbHpHbR NTD; source: recombinant, expressed as previously described (34)
Nature of the test: ELISA; phage ELISA: 10 ug/ml HpHbR NTD coated on Nunc Maxisorp plates or 5 ug/mL biotinylated NTD on streptavidin-coated plates overnight at 4°C; blocked phage supernatants 1 hr at room temperature; bound phage detected with anti-M13 HRP antibody; BSA and streptavidin in parallel. The following applies: one partner purified.
In the case of B1, the binding result is reported as “binds”.
In the case of B2, the binding result is given as “binds”.
With B3, the binding result is reported as “binds”.
In the case of B4, the binding result is given as “binds”.
B5: the binding result was “binds”.
Under B6 stands “binds”.
